Results reported in the supplement of paper PMC9170038.

Test system: MS2 coat protein
Experiment: apparent KD of MS2 coat protein; designed switch direction (-1 OFF switch, 1 ON switch): -1; higher = weaker reporter binding
Procedure, shortened: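 The apparent KD reported per design is the median over clusters of curve fits to normalised cluster fluorescence. The RNA switches were transcribed on Illumina chips by stalled E. coli RNA polymerase. SNAP-549-labelled MS2 coat protein was titrated from 0.7 or 1.5 nM, doubling up to 3 µM, in Tris-HCl pH 7.5 buffer containing KCl, MgCl2, BSA, DTT, tRNA and Tween-20, with no input, 200 uM small-molecule ligand, or an oligonucleotide input.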

[1] = Eterna round: R95, input ligand: microRNA oligo, concentration not stated
[2] = Eterna round: R95, input ligand: FMN 200 uM
[3] = Eterna round: R95, input ligand: none
[4] = input ligand: microRNA oligo, concentration not stated

Sequence | apparent KD of MS2 coat protein [1] | apparent KD of MS2 coat protein [2] | apparent KD of MS2 coat protein [3] | apparent KD of MS2 coat protein (input ligand: FMN 200 uM) | apparent KD of MS2 coat protein (input ligand: none) | apparent KD of MS2 coat protein [4]
CUGAUGUGAGGAUAUGUGAUCUGCCUUCUAUGUAGAUGAUCACAGAAGGCACAUGAGGAUCACCCAUGUAGAUC [Ex4 - 3 - 26] (puzzle: Exclusion 4) | 69.7 nM | – | – | – | – | –
CAUACUAAAGUCAGGAUAUGCGGUCGAAUACGGGUGUAGAAGGGACAUGAGGAUCACCCAUGUAGAUAGUAAAG [EX-4 Malc #18] (puzzle: Brourd's mod of Exclusion 4) | 90.2 nM | 93.1 nM | 129 nM | – | – | –
ACAAGCUUUUAGAUUCUUAACAUGAGGAUCACCCAUGUGCUCGUCUUAUUGGCCGGCCGGCCGCCGGCCGGCCGGCC (Eterna round: R97, puzzle: Sensor, turn-off variant 1) | – | – | – | 43.6 nM | 40.9 nM | –
AAGUACCGUCACGAAAGUGAUGGUACAACAAGCAUGUAAACAUGAGGAUCACCCAUGUCCUCAUAUGCUCGUCUUAU [Sensor 3 - 63] (puzzle: Sensor v3, turn-off variant 2) | 32.5 nM | 480 nM | 533 nM | – | – | –
AGCUGUGGCCAAGGAUAUCUAGCCUUAAAUACCGACGUAUAGUCGGACAUGAGGAUCACCCAUGUGGAGAAGGUGGUCUCAGCA [Eli eng2 - 044] (Eterna round: R96, puzzle: Exclusion NG 2) | – | – | – | 82 nM | 74.3 nM | 53 nM
UUUCCCUGGCAAGGAUAUCCUGUGCGGUUCCGGCUCGUGUCUGUUACAUGAGGAUCACCCAUGUGGGAGAAGGUGCCUGUGGCU [Design 91] (Eterna round: R96, puzzle: Exclusion NG 2) | – | – | – | – | – | 47.4 nM
UACUAAAAGGAGGAUAUCGUAUCGGAAACGAUACGAGAAGGCUUAACAUGAGGAUCACCCAUGUUCUUCAAUAU [Mat - Exclusion 6 - Eli Mod - D92] (puzzle: Exclusion 6) | 16 nM | 18.2 nM | 14.8 nM | – | – | –
GUGUCGUAAGGAUAUUUACCUGAGCCACUAGAGCGCUUGGAGAAGAAGGUACAUGAGGAUCACCCAUGUGGUGA [Eternabot (L2) Solution 61] (Eterna round: R97, puzzle: Exclusion 4) | – | – | – | 1430 nM | 2570 nM | –
UUGCCACAUGAGGAUCACCCAUGUGAGGAUAUGGCCCGCCCGGCGUGUGCUGGUUUUGUCAGAAGGCGCGUGGG [salish99_ex1_r4_029] (Eterna round: R97, puzzle: Exclusion 1) | – | – | – | 52.4 nM | 27.9 nM | –
UUUAUUAAUUAAUAUAAUAAGAUCACAUGAGGAUCACCCAUGUAGGAUAUCAGCUCGUGUAGAGCUGAGAAGGACAUAAUUAUA [ExNG3/1-B3] (Eterna round: R96, puzzle: Exclusion NG 3) | – | – | – | 108 nM | 34.3 nM | 27 nM
CGUCUGUCAGGAUAUAGUUACAUAGACAUGAGGAUCACCCAUGUGACGUGGGACUAGUGACUAGAAGGGACGAACG [EX5 #71] (Eterna round: R97, puzzle: Exclusion 5) | – | – | – | 58.7 nM | 28.8 nM | –
AUUAAACAUGUAGGAUAUGCGUGGCGAAGCUAUGCAGAAGGACAUGAGGAUCACCCAUGUAAGAGCGUCUGCGUACAGAUGCAA [Mat - Exclusion NG 1 - Mod of JL - D85] (Eterna round: R96, puzzle: Exclusion NG 1) | – | – | – | 563 nM | 61.5 nM | 36.6 nM
ACCAGUGGAGGAUAUACAUGAGGAUCACCCAUGUGUUGAAUAGGUGGAGAACCACAAAGUAGAAGGCCACUGGA [jl-ex3-4.79 jandersonlee automod] (Eterna round: R97, puzzle: Exclusion 3) | – | – | – | 1000 nM | 76.6 nM | –
ACGUGAUACCUGUCGGUGGACAUGAGGAUCACCCAUGUAAGCUUUUUGCUCGUCUUAUAACCCGGUGACAGACCUUC [Racequbebe] (puzzle: Sensor v3, turn-off variant 1) | 544 nM | 97.7 nM | 142 nM | – | – | –
AUAAUUAAUGCAGGAUAUCAGCACGAUUAGUGCUGAGAAGGGCACAUGAGGAUCACCCAUGUGAUCAAUUAAUAUUAAUAUUAU [ENG1/11-D1] (Eterna round: R96, puzzle: Exclusion NG 1) | – | – | – | 279 nM | 61.6 nM | 53 nM
